The values that follow come from patent US20060204492A1 (published 2006).

Assay [1] concerns the target integrin αvβ3 on cells (M21 human melanoma cells; human umbilical vein endothelial cells) (human) (UniProt P06756). Put plainly: cell-based or functional assay.
Assay [2] has as its target T1, integrin αvβ3, purified from human placenta (human, UniProt P06756 31-1048; P05106 27-788).
T1 construct: mature; Native heterodimer, immobilized on ELISA plates or on the BIAcore chip; biotinylated in capture lift and capture ELISA screens; also called αvβ3 receptor; vitronectin receptor
The assay is described as follows: SPR (BIAcore), purified Fab over immobilized αvβ3. For orientation: Surface plasmon resonance follows binding to a sensor surface in real time, without labels.
Procedure: The affinities of select variants were further characterized by utilizing surface plasmon resonance (BIAcore) to measure the association and dissociation rates of purified Fab with immobilized αᵥβ₃. […] To obtain association rate constants (kₒₙ), the binding rate at five different Fab concentrations, ranging from 5-40 μg/ml in 50 mM Tris-HCl, pH 7.4, 100 mM NaCl, 2 mM CaCl₂, and 1 mM MgCl₂, was determined at a flow rate of 10 μl/min. Dissociation rate constants (koff) were the average of five measurements obtained by analyzing the dissociation phase at an increased flow rate (40 μl/min). Sensorgrams were analyzed with the BIAevaluation 2.1 program (Pharmacia). Residual Fab was removed after each measurement with 10 mM HCl, 2 mM CaCl₂ and 1 mM MgCl₂.

In assay [3] the target is T1, integrin αvβ3, purified from human …. The assay is described as follows: ELISA titration of Fab on immobilized αvβ3. In general terms: In an ELISA, binding on a coated surface is turned into a signal by an enzyme label.
Procedure: (§1) Just prior to use, the plates were washed two times and were then incubated 1 h at 25° C. with various dilutions of Fab. […] All dilutions and washes were in 50 mM Tris-HCl, pH 7.4, 100 mM NaCl, 2 mM CaCl₂, and 1 mM MgCl₂.
Assay [4] has the same target. Put plainly: SPR (BIAcore), purified Fab over immobilized αvβ3. This is another data set of the same source.
For assay [5] the target is unchanged. The assay is described as follows: ELISA titration of bacterial lysate Fab on immobilized αvβ3, inflection points.
Procedure: as §1
For another assay, the target named is T2, integrin αvβ5 (human, UniProt P06756 31-1048; P18084 24-799).
T2 construct: mature
The assay is described as follows: ELISA on coated integrin, goat anti-human IgG-alkaline phosphatase.

T1 sequence (P06756 31-1048, form in doubt, chain 1 of 2): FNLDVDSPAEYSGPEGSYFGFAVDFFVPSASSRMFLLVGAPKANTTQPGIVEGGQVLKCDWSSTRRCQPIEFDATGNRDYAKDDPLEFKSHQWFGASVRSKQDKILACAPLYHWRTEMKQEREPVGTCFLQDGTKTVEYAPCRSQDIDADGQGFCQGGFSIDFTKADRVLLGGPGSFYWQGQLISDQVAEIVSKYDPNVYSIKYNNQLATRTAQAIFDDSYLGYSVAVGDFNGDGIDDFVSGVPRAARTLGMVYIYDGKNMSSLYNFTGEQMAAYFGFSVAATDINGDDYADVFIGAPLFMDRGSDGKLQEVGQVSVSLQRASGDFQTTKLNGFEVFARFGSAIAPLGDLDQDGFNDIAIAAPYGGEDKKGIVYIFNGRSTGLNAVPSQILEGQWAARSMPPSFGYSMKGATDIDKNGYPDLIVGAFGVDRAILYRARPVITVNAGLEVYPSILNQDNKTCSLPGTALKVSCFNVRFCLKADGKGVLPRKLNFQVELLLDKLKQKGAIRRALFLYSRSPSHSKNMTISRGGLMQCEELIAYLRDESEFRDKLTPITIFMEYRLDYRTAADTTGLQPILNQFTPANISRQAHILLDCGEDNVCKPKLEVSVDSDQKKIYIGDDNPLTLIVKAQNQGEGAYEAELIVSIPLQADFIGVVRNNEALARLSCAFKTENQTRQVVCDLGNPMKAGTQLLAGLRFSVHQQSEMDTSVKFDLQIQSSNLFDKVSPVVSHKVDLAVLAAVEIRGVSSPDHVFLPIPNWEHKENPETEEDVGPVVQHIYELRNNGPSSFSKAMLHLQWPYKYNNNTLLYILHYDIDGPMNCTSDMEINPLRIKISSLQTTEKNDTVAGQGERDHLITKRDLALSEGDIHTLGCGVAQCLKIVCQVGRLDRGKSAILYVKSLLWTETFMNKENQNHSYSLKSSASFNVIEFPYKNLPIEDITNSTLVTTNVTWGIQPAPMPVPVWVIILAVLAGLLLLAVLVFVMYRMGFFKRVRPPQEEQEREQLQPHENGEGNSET
T1 sequence (P05106 27-788, form in doubt, chain 2 of 2): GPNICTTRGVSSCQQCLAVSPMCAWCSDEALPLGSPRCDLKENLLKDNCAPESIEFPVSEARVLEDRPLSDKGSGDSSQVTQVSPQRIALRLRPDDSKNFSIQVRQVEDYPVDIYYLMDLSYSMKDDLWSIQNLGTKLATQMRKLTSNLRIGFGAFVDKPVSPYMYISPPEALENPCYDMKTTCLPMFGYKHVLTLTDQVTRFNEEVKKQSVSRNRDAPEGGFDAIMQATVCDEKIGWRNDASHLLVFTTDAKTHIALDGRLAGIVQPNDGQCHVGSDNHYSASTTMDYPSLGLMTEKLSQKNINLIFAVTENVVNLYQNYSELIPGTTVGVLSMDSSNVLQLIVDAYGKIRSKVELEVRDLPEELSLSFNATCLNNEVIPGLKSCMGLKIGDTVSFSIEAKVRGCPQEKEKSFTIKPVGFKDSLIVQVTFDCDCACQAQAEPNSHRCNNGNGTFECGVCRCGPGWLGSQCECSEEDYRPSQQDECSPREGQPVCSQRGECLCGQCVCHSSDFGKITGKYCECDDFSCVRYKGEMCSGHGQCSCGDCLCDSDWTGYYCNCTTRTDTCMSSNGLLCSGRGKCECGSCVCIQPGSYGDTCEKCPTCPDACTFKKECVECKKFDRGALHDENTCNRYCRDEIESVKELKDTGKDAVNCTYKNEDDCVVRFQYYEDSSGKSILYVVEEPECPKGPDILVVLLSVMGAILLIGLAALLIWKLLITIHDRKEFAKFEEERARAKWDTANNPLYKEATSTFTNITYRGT
integrin αvβ3 on cells (M21 human melanoma cells; human umbilical vein endothelial cells) (human), sequence (P06756 31-1048, chain 1 of 2): as the sequence (P06756 31-1048, form in doubt, chain 1 of 2) above
integrin αvβ3 on cells (M21 human melanoma cells; human umbilical vein endothelial cells) (human), sequence (P05106 27-788, chain 2 of 2, further chain): as the sequence (P05106 27-788, form in doubt, chain 2 of 2) above
T2 sequence (P06756 31-1048, chain 1 of 2): as the sequence (P06756 31-1048, form in doubt, chain 1 of 2) above
T2 sequence (P18084 24-799, chain 2 of 2): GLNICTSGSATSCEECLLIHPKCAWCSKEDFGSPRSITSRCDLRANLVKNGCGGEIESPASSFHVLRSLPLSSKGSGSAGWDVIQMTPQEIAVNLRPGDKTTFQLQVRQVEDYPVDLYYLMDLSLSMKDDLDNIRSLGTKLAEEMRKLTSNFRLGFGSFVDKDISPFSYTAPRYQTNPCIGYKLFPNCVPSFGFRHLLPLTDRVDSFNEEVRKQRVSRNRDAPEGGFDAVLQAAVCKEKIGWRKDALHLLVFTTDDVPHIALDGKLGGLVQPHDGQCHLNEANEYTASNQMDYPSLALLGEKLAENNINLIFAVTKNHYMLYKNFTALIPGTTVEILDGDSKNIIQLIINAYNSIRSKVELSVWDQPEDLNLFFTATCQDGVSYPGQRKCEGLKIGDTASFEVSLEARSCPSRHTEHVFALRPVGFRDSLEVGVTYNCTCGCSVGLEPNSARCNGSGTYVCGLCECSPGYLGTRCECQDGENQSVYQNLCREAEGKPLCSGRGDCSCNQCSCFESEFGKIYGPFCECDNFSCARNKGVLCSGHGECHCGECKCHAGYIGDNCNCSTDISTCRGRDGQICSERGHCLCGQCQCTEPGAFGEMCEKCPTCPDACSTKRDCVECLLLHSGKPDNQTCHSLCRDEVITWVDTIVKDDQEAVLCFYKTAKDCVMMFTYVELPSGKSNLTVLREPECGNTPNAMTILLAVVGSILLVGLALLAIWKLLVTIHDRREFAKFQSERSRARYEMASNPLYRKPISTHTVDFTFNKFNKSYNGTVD
Procedure for integrin αvβ5: Antibody binding activity was assessed by ELISA using a goat anti-human IgG-alkaline phosphatase conjugate.

On to monoclonal antibody LM609, for which, in assay [1], the inhibition of M21 cell adhesion to fibrinogen: inhibitory concentration for 50% maximal adhesion stood at 50 ng/mL and the inhibition of vitronectin-induced migration of human umbilical vein endothelial cells (transwell), 5 µg/ml antibody amounted to 60%.

B1: LM609 grafted antibody variant F32 (Fab, V domains shown)
VH: QVQLVESGGGVVQPGRSLRLSCAASGFTFSSYDMSWVRQAPGKGLEWVAKVSSGGGSTYYLDTVQGRFTISRDNSKNTLYLQMNSLRAEDTAVYYCARHNYGSFAYWGQGTTVTVSS
VL: EIVLTQSPATLSLSPGERATLSCQASQSISNFLHWYQQRPGQAPRLLIRYRSQSISGIPARFSGSGSGTDFTLTISSLEPEDFAVYYCQQSGSWPHTFGGGTKVEIK
notes: Fab
For orientation: Kd means the concentration at which binding is half-saturated. By koff is commonly meant a measure of how fast the partners let go of each other. The low end stands for a long-lived complex, the high end for a short-lived complex. What is called kon is the second-order rate constant of association. A lower kon goes with slower complex formation. In assay [2], B1 gave a Kd of 2.5 nM, a koff of 0.00042 s⁻¹ and a kon of 167000 M⁻¹ s⁻¹. Moreover, the “fold enhanced binding over parent LM609 grafted antibody” value (shortened to “fold enhanced binding”) in assay [3] is over 3 fold. Further, the “fold slower dissociation than LM609 grafted antibody” value in assay [4] was found to be 11.8 fold.

B2: LM609 grafted antibody variant Y100 (Fab, V domains shown)
VH: QVQLVESGGGVVQPGRSLRLSCAASGFTFSSYDMSWVRQAPGKGLEWVAKVSSGGGSTYYLDTVQGRFTISRDNSKNTLYLQMNSLRAEDTAVYYCARHNYGSYAYWGQGTTVTVSS
VL: EIVLTQSPATLSLSPGERATLSCQASQSISNHLHWYQQRPGQAPRLLIRYRSQSISGIPARFSGSGSGTDFTLTISSLEPEDFAVYYCQQSGSWPHTFGGGTKVEIK
notes: Fab
In assay [2], B2 gave a Kd of 14.3 nM, a koff of 0.00251 s⁻¹ and a kon of 175000 M⁻¹ s⁻¹. Besides, in assay [3], the “fold enhanced binding” value was over 3 fold. Moreover, the “fold improved affinity over LM609 grafted antibody” value (“fold improved affinity” for short) in assay [5] was over 3 fold.

B3: LM609 grafted antibody variant L96 (Fab, V domains shown)
VH: QVQLVESGGGVVQPGRSLRLSCAASGFTFSSYDMSWVRQAPGKGLEWVAKVSSGGGSTYYLDTVQGRFTISRDNSKNTLYLQMNSLRAEDTAVYYCARHNYGSFAYWGQGTTVTVSS
VL: EIVLTQSPATLSLSPGERATLSCQASQSISNHLHWYQQRPGQAPRLLIRYRSQSISGIPARFSGSGSGTDFTLTISSLEPEDFAVYYCQQSGSWPLTFGGGTKVEIK
notes: Fab
In assay [2], B3 had a dissociation constant (Kd) of 9.2 nM, a koff of 0.00223 s⁻¹ and a kon of 243000 M⁻¹ s⁻¹. Further, the “fold enhanced binding” value in assay [3] was over 3 fold.

B4: Vitaxin (antibody, human IgG1, V domains shown)
VH: QVQLVESGGGVVQPGRSLRLSCAASGFTFSSYDMSWVRQAPGKGLEWVAKVSSGGGSTYYLDTVQGRFTISRDNSKNTLYLQMNSLRAEDTAVYYCARHNYGSFAYWGQGTTVTVSS
VL: EIVLTQSPATLSLSPGERATLSCQASQSISNHLHWYQQRPGQAPRLLIKYRSQSISGIPARFSGSGSGTDFTLTISSLEPEDFAVYYCQQSGSWPHTFGGGTKVEIK
notes: Human IgG1 constant region and human kappa constant region; also called huLM609M13 1135-4; grafted LM609
In the case of B4, in the assay with integrin αvβ5, the binding result is listed as “no binding (tested: over 1.0 mg/ml)”.

B5: LM609 grafted antibody variant S102 (Fab, V domains shown)
VH: QVQLVESGGGVVQPGRSLRLSCAASGFTFSSYDMSWVRQAPGKGLEWVAKVSSGGGSTYYLDTVQGRFTISRDNSKNTLYLQMNSLRAEDTAVYYCARHNYGSFASWGQGTTVTVSS
VL: EIVLTQSPATLSLSPGERATLSCQASQSISNHLHWYQQRPGQAPRLLIRYRSQSISGIPARFSGSGSGTDFTLTISSLEPEDFAVYYCQQSGSWPHTFGGGTKVEIK
notes: Fab; also called clone S102
Regarding B5, in assay [2], binding was characterised by a dissociation constant (Kd) of 6 nM, the koff came to 0.00144 s⁻¹ and the kon worked out at 242000 M⁻¹ s⁻¹. In addition, in assay [3], the “fold enhanced binding” value was over 3 fold. Besides, the “fold improved affinity” value in assay [5] is over 3 fold. For the same molecule, the “fold higher affinity than LM609 grafted antibody” value in assay [4] was found to be 4.6 fold.

B6: LM609 grafted antibody variant T102 (Fab, V domains shown)
VH: QVQLVESGGGVVQPGRSLRLSCAASGFTFSSYDMSWVRQAPGKGLEWVAKVSSGGGSTYYLDTVQGRFTISRDNSKNTLYLQMNSLRAEDTAVYYCARHNYGSFATWGQGTTVTVSS
VL: EIVLTQSPATLSLSPGERATLSCQASQSISNHLHWYQQRPGQAPRLLIRYRSQSISGIPARFSGSGSGTDFTLTISSLEPEDFAVYYCQQSGSWPHTFGGGTKVEIK
notes: Fab
In assay [2], B6 had a Kd of 5.8 nM, a koff of 0.00143 s⁻¹ and a kon of 246000 M⁻¹ s⁻¹. Moreover, the “fold enhanced binding” value in assay [3] was over 3 fold.

B7: LM609 grafted antibody variant N92 (Fab, V domains shown)
VH: QVQLVESGGGVVQPGRSLRLSCAASGFTFSSYDMSWVRQAPGKGLEWVAKVSSGGGSTYYLDTVQGRFTISRDNSKNTLYLQMNSLRAEDTAVYYCARHNYGSFAYWGQGTTVTVSS
VL: EIVLTQSPATLSLSPGERATLSCQASQSISNHLHWYQQRPGQAPRLLIRYRSQSISGIPARFSGSGSGTDFTLTISSLEPEDFAVYYCQQSNSWPHTFGGGTKVEIK
notes: Fab; also called LM609 grafted antibody having Asn at position 92 of light chain CDR3
For the molecule B7, in assay [2], the Kd was found to be 5.7 nM, the koff is 0.00135 s⁻¹ and the kon was found to be 236000 M⁻¹ s⁻¹. Further, the “fold enhanced binding” value in assay [3] was over 3 fold.

B8: LM609 grafted antibody variant Y101 (Fab, V domains shown)
VH: QVQLVESGGGVVQPGRSLRLSCAASGFTFSSYDMSWVRQAPGKGLEWVAKVSSGGGSTYYLDTVQGRFTISRDNSKNTLYLQMNSLRAEDTAVYYCARHNYGSFYYWGQGTTVTVSS
VL: EIVLTQSPATLSLSPGERATLSCQASQSISNHLHWYQQRPGQAPRLLIRYRSQSISGIPARFSGSGSGTDFTLTISSLEPEDFAVYYCQQSGSWPHTFGGGTKVEIK
notes: Fab
In assay [2], B8 registered a Kd of 2.2 nM, a koff of 0.00048 s⁻¹ and a kon of 218000 M⁻¹ s⁻¹. In addition, the “fold enhanced binding” value in assay [3] is over 3 fold. The “fold improved affinity” value in assay [5] is over 3 fold. Besides, the “fold increase in affinity over parent LM609 grafted antibody” value in assay [4] turned out to be 12.5 fold.

B9: LM609 grafted antibody variant G102 (Fab, V domains shown)
VH: QVQLVESGGGVVQPGRSLRLSCAASGFTFSSYDMSWVRQAPGKGLEWVAKVSSGGGSTYYLDTVQGRFTISRDNSKNTLYLQMNSLRAEDTAVYYCARHNYGSFAGWGQGTTVTVSS
VL: EIVLTQSPATLSLSPGERATLSCQASQSISNHLHWYQQRPGQAPRLLIRYRSQSISGIPARFSGSGSGTDFTLTISSLEPEDFAVYYCQQSGSWPHTFGGGTKVEIK
notes: Fab; also called clone G102
In assay [2], B9 returned a Kd of 12.5 nM, a koff of 0.00201 s⁻¹ and a kon of 161000 M⁻¹ s⁻¹. Also, in assay [3], the “fold enhanced binding” value is over 3 fold. Also, in assay [4], the “fold enhanced affinity over LM609 grafted antibody” value was determined as 2.2 fold.

B10: LM609 grafted antibody variant H97 (Fab, V domains shown)
VH: QVQLVESGGGVVQPGRSLRLSCAASGFTFSSYDMSWVRQAPGKGLEWVAKVSSGGGSTYYLDTVQGRFTISRDNSKNTLYLQMNSLRAEDTAVYYCARHNHGSFAYWGQGTTVTVSS
VL: EIVLTQSPATLSLSPGERATLSCQASQSISNHLHWYQQRPGQAPRLLIRYRSQSISGIPARFSGSGSGTDFTLTISSLEPEDFAVYYCQQSGSWPHTFGGGTKVEIK
notes: Fab
In assay [2], B10 had a Kd of 13.8 nM, a koff of 0.00303 s⁻¹ and a kon of 220000 M⁻¹ s⁻¹. The “fold enhanced binding” value in assay [3] is over 3 fold. Further, the “fold slower dissociation than LM609 grafted antibody” value in assay [4] was 1.6 fold.

B11: LM609 grafted antibody variant P60 (Fab, V domains shown)
VH: QVQLVESGGGVVQPGRSLRLSCAASGFTFSSYDMSWVRQAPGKGLEWVAKVSSGGGSTYYPDTVQGRFTISRDNSKNTLYLQMNSLRAEDTAVYYCARHNYGSFAYWGQGTTVTVSS
VL: EIVLTQSPATLSLSPGERATLSCQASQSISNHLHWYQQRPGQAPRLLIRYRSQSISGIPARFSGSGSGTDFTLTISSLEPEDFAVYYCQQSGSWPHTFGGGTKVEIK
notes: Fab
Take B11: in assay [2], the dissociation constant Kd amounted to 5.8 nM, the koff is 0.00185 s⁻¹ and the kon was found to be 318000 M⁻¹ s⁻¹. Moreover, in assay [3], the “fold enhanced binding” value was over 3 fold.
